The chains are these.
B1: Peptide 2 (peptide)
chain: cyclo(GVCICRRRFCLCRR)
modifications: disulfide (positions not given here); not fully specified (bridges)
B2: Peptide 10 (peptide)
chain: cyclo(GVCACRRRFCACRR)
modifications: disulfide (positions not given here); not fully specified (bridges)
B3: Peptide 7 (peptide)
chain: cyclo(GVCICRRRFCSCRR)
modifications: disulfide (positions not given here); not fully specified (bridges)
B4: Peptide 6 (peptide)
chain: cyclo(GVCSCRRRFCICRR)
modifications: disulfide (positions not given here); not fully specified (bridges)
B5: Peptide 5 (peptide)
chain: cyclo(GVCACARRFCACRR)
modifications: disulfide (positions not given here); not fully specified (bridges)
B6: Peptide 3 (peptide)
chain: cyclo(GVCLCRRGVCLCRR)
modifications: disulfide (positions not given here); not fully specified (bridges)
B7: Peptide 9 (peptide)
chain: cyclo(GACICRRRFCLCRR)
modifications: disulfide (positions not given here); not fully specified (bridges)
B8: Peptide 1 (peptide)
chain: cyclo(GVCICRRRVCICGR)
modifications: disulfide (positions not given here); not fully specified (bridges)
B9: Peptide 8 (peptide)
chain: cyclo(GVCSCRRRFCLCRR)
modifications: disulfide (positions not given here); not fully specified (bridges)
B10: Peptide 4 (peptide)
chain: cyclo(GVCICRRGVCICRR)
modifications: disulfide (positions not given here); not fully specified (bridges)

The assay has as its target TACE. The assay can be described thus: cell-based or functional assay.
B1 returned a TACE IC50 of 2.2 µg/mL.
Molecule B2 yielded a TACE IC50 of 2.74 µg/mL.
Molecule B3 came in with a TACE IC50 of 1.87 µg/mL.
Turning to B4, the TACE IC50 amounted to 3.19 µg/mL.
Consider B5, for which the TACE IC50 was 1.83 µg/mL.
B6 showed a TACE IC50 of 1.15 µg/mL.
In the case of B7 it was 0.515 µg/mL; in that of B8, 0.858 µg/mL; in that of B9, 2.61 µg/mL.
Consider B10, for which the TACE IC50 came out at 0.546 µg/mL.

The values above are taken from patent US20230038720A1.
